Source: article PMC5123727 (International Journal of Nanomedicine, 2016)
“Also recorded” adds a separate entry of the source. Peptide text beside a SMILES is read from it. * marks the point of attachment. X1 = CCc1c2c(nc3ccc(OC(=O)[C@H]4CC[C@H](CNC(=O)[C@H]5CC[C@H](CN6C(=O)CC(*)C6=O)CC5)CC4)cc13)-c1cc3c(c(=O)n1C2)COC(=O)[C@]3(O)CC

Assays:
[1] = Phase I plasma pharmacokinetics of DTS-108, SN-38 and SN-38G; type: in vivo; conditions: human, iv
Solubility in water = type: physicochemical
[2] = test system: advanced or metastatic solid tumors; experiment: Tumor response; type: in vivo, human
dog basophils = conditions: in vitro, preclinical, ref not given; cited from earlier work
cardiac repolarization = experiment: Cardiovascular effects: QRS and QTc intervals; type: in vivo, human
[3] = Phase I dose escalation: toxicity; type: in vivo, human; conditions: for Other toxicities: Type of toxicity and grade: UR unrelated, R probably related
[4] = dogs, 4.5–53 mg free base/kg; preclinical, ref not given; cited from earlier work
human basophils = conditions: in vitro, preclinical, ref not given; cited from earlier work
[5] = dose 313 mg/m^2, Hyperbilirubinemia (UR)
[6] = drug-related, repeated dosing, all doses, n=42

## CCc1c2c(nc3ccc(OC(=O)[C@H]4CC[C@H](CNC(=O)[C@H]5CC[C@H](CN6C(=O)CC(SC[C@H](N)C(=O)N[C@H](C(=O)N[C@@H](CCCCN)C(=O)N[C@@H](CCCNC(=N)N)C(=O)NCC(=O)N[C@@H](CC(C)C)C(=O)N[C@@H](CCCCN)C(=O)N[C@@H](CC(C)C)C(=O)N[C@@H](CCCNC(=N)N)C(=O)N[C@@H](Cc7c[nH]cn7)C(=O)N[C@H](C(=O)N[C@@H](CCCNC(=N)N)C(=O)N7CCC[C@H]7C(=O)N[C@@H](CCCNC(=N)N)C(=O)N[C@H](C(=O)N[C@H](C(=O)N[C@@H](CCCNC(=N)N)C(=O)N[C@@H](CCSC)C(=O)N[C@@H](CC(=O)O)C(=O)N[C@H](C(=O)O)C(C)C)[C@@H](C)O)C(C)C)C(C)C)C(C)C)C6=O)CC5)CC4)cc13)-c1cc3c(c(=O)n1C2)COC(=O)[C@]3(O)CC (stereo partly drawn) [DTS-108] (H-C(X1)VKRGLKLRHVRPRVTRMDV-OH)
[1]; 3 mg/m2
  Tmax: 0.25 h
[1]; 6 mg/m2
  Tmax: 1 h
[1]; 12 mg/m2
  Tmax: 0.97 h
[1]; 24 mg/m2
  Tmax: 0.98 h
[1]; 32 mg/m2
  Tmax: 1.11 h
[1]; 42 mg/m2
  Tmax: 1.32 h
[1]; 56 mg/m2
  Tmax: 0.96 h
[1]; 75 mg/m2
  Tmax: 1.44 h
[1]; 100 mg/m2
  Tmax: 1.31 h
[1]; 133 mg/m2
  Tmax: 0.99 h
[1]; 177 mg/m2
  Tmax: 1.45 h
[1]; 235 mg/m2
  Tmax: 1.27 h
[1]; 313 mg/m2
  AUC(0-inf): 439 µg·h/mL
  Tmax: 1.68 h
[1]; 416 mg/m2
  Tmax: 2.47 h
Solubility in water
  solubility in water: highly soluble
[2]; 42 patients
  objective response: No patient
[2]; 95% CI 3–17 months
  median progression-free survival: 11 months
[2]; in vivo
  patients with stable disease status maintained for six cycles or longer: seven
Dog basophils
  histamine release: histamine release induced
Cardiac repolarization; all doses
  changes in QRS morphology or interval measurements: no clinically significant drug-related changes
  instances of postdose QTc >450 ms: four
  instances of postdose QTc >500 ms: no instances
Cardiac repolarization; one patient, 416 mg/m^2, cycle 3, predose QTc 391 ms
  QTc at the end of dosing: 484 ms
[3]; 235 mg/m^2
  patients with Grade 3 neutropenia: one of four
[3]; 313 mg/m^2
  patients with Grade 3 neutropenia: four of six
  patients with no dose-limiting neutropenia: five of the six
[3]; 416 mg/m^2
  patients with Grade 3 neutropenia: four of six
  patients with dose reductions to 313 mg/m^2: three of six
  patients with grade 4 neutropenia: three out of six
[3]; Cohort 11, 177 mg/m^2
  patients with infusion reactions: all three
[3]; all doses
  nephrotoxicity: no evidence of nephrotoxicity
[3]; cycle 1
  dose-limiting toxicity (DLT): Neutropenia
[3]; dose 32 mg/m^2, Hyperbilirubinemia (UR)
  Other toxicities Grades 1–2, patients: 1
[3]; dose 32 mg/m^2, Respiratory and thoracic disorder (UR)
  Other toxicities Grades 1–2, patients: 1
[3]; dose 32 mg/m^2
  Other toxicities: Type of toxicity and grade: Respiratory and thoracic disorder (UR); also recorded: Hyperbilirubinemia (UR)
[3]; dose 42 mg/m^2, Retroperitoneal hematoma (UR)
  Other toxicities Grades 1–2, patients: 1
[3]; dose 42 mg/m^2
  Other toxicities: Type of toxicity and grade: Retroperitoneal hematoma (UR)
[3]; dose 56 mg/m^2, Acute pancreatitis (UR)
  Other toxicities Grades 1–2, patients: 1
[3]; dose 56 mg/m^2, Hyperbilirubinemia (UR)
  Other toxicities Grades 1–2, patients: 1
[3]; dose 56 mg/m^2
  Other toxicities: Type of toxicity and grade: Acute pancreatitis (UR); also recorded: Hyperbilirubinemia (UR)
[3]; dose 75 mg/m^2, 3 patients
  Neutropenia All grades, patients: 1
[3]; dose 100 mg/m^2, 3 patients
  Neutropenia All grades, patients: 1
[3]; dose 100 mg/m^2, Complete left lung atelectasy (UR)
  Other toxicities Grades 1–2, patients: 1
[3]; dose 100 mg/m^2
  Other toxicities: Type of toxicity and grade: Complete left lung atelectasy (UR)
[3]; dose 133 mg/m^2, 4 patients
  Neutropenia All grades, patients: 3
[3]; dose 133 mg/m^2, Hyperbilirubinemia (UR)
  Other toxicities Grades 1–2, patients: 1
[3]; dose 133 mg/m^2
  Other toxicities: Type of toxicity and grade: Hyperbilirubinemia (UR)
[3]; dose 177 mg/m^2, 3 patients
  Neutropenia All grades, patients: 1
[3]; dose 177 mg/m^2
  Other toxicities: Type of toxicity and grade: Vomiting (R), diarrhea (R), and nausea (R)
[3]; dose 177 mg/m^2, Vomiting (R), diarrhea (R), and nausea (R)
  Other toxicities Grades 1–2, patients: 1
[3]; dose 236 mg/m^2, 4 patients
  Neutropenia All grades, patients: 1
  Neutropenia Grades 3–4, patients: 1
[3]; dose 236 mg/m^2, Edema of lower limb (UR)
  Other toxicities Grades 1–2, patients: 1
[3]; dose 236 mg/m^2
  Other toxicities: Type of toxicity and grade: Edema of lower limb (UR); also recorded: Vomiting (R) and diarrhea (R)
[3]; dose 236 mg/m^2, Vomiting (R)
  Other toxicities Grades 1–2, patients: 1
[3]; dose 236 mg/m^2, Vomiting (R) and diarrhea (R)
  Other toxicities Grades 3–4, patients: 1
[3]; dose 313 mg/m^2, 6 patients
  Neutropenia All grades, patients: 6
  Neutropenia Grades 3–4, patients: 4
[3]; dose 313 mg/m^2, Diarrhea (R)
  Other toxicities Grades 3–4, patients: 1
[3]; [5]
  Other toxicities Grades 1–2, patients: 1
  Other toxicities Grades 3–4, patients: 1
[3]; dose 313 mg/m^2
  Other toxicities: Type of toxicity and grade: Diarrhea (R); also recorded: Hyperbilirubinemia (UR)
[3]; dose 416 mg/m^2, 6 patients
  Neutropenia All grades, patients: 6
  Neutropenia Grades 3–4, patients: 4
[3]; dose 416 mg/m^2
  Other toxicities: Type of toxicity and grade: Vomiting (UR), pyrexia (UR), and chills (R)
[3]; dose 416 mg/m^2, Vomiting (UR), pyrexia (UR), and chills (R)
  Other toxicities Grades 1–2, patients: 1
[3]; [6]
  Abdominal pain: Number of patients with ≥1 adverse event: 8
  Abdominal pain: Total (%): 19.0%
  Alanine aminotransferase elevation increased: Number of patients with ≥1 adverse event: 5
  Alanine aminotransferase elevation increased: Total (%): 11.9%
  Alopecia: Number of patients with ≥1 adverse event: 8
  Alopecia: Total (%): 19.0%
  Anemia: Number of patients with ≥1 adverse event: 13
  Anemia: Total (%): 31.0%
  Anorexia: Number of patients with ≥1 adverse event: 9
  Anorexia: Total (%): 21.4%
  Ascites: Number of patients with ≥1 adverse event: 5
  Ascites: Total (%): 11.9%
  Asthenia: Number of patients with ≥1 adverse event: 18
  Asthenia: Total (%): 42.9%
  Constipation: Number of patients with ≥1 adverse event: 6
  Constipation: Total (%): 14.3%
  Cough: Number of patients with ≥1 adverse event: 5
  Cough: Total (%): 11.9%
  Diarrhea: Number of patients with ≥1 adverse event: 17
  Diarrhea: Total (%): 40.5%
  Dyspnea: Number of patients with ≥1 adverse event: 9
  Hypoalbuminemia: Number of patients with ≥1 adverse event: 5
  Hypoalbuminemia: Total (%): 11.9%
  Leukopenia: Number of patients with ≥1 adverse event: 6
  Leukopenia: Total (%): 14.3%
  Lymphopenia: Number of patients with ≥1 adverse event: 7
  Lymphopenia: Total (%): 16.7%
  Nausea: Number of patients with ≥1 adverse event: 18
  Nausea: Total (%): 42.9%
  Neutropenia: Number of patients with ≥1 adverse event: 8
  Neutropenia: Total (%): 19.0%
  Pyrexia: Number of patients with ≥1 adverse event: 7
  Pyrexia: Total (%): 16.7%
  Rash: Number of patients with ≥1 adverse event: 9
  Rash: Total (%): 21.4%
  Vomiting: Number of patients with ≥1 adverse event: 14
  Vomiting: Total (%): 33.3%
  Weight decreased >10%: Number of patients with ≥1 adverse event: 5
  Weight decreased >10%: Total (%): 11.9%
[3]; iv 2-hour infusion every 2 weeks
  recommended Phase II dose (RP2D): 313 mg/m^2
[3]; iv every 2 weeks, patients with advanced/metastatic solid tumors
  maximum tolerated dose (MTD): 313 mg/m^2
[4]
  resolution of immediate effects resembling an infusion reaction: resolved spontaneously within a few hours
  severity of immediate effects resembling an infusion reaction: moderate severity
Human basophils
  histamine release: histamine release induced
